Source: patent US20070254831A1 (published 2007)
Read-outs that look alike come from different tables or passages of the source. Bridge positions count the residues as written; N and C are the ends. Square brackets hold non-standard residues; d marks the D form. Ends that are not written are not given here. Pen = CC(C)(S)[C@H](N)C(=O)O

Key:
[1] = target: T1, soluble human FcRn (human, UniProt P55899 24-297; P61769 21-119, biotinylated (Sulfo-NHS-LC-Biotin) in the ELISA; amine-coupled to CM5 chip in SPR); assay: SPR, pH 6
T1 construct: also called shFcRn; biotinylated shFcRn
Procedure: (§1) The following steps were performed to cross-link soluble human or cynomolgus FcRn to the dextran surface of a CM5 sensor chip (Biacore AB, Uppsala, Sweden) by an amine coupling reaction involving 1-ethyl-(3-dimethylaminopropyl)-carbodiimide hydrochloride (EDC) (Biacore AB, Uppsala, Sweden) and N-hydroxysuccinimide (NHS) (Biacore AB, Uppsala, Sweden) as recommended by Biacore (BIAapplications Handbook, version AB, section 4.2, Biacore AB, Uppsala, Sweden). […] Residual sites on the FcRn flow cell were blocked with 1 M ethanolamine hydrochloride pH 8.5 (Biacore AB, Uppsala, Sweden). A control flow cell was blocked with ethanolamine for reference subtraction. For analysis of the monomeric peptides, FcRn was coated to a final density of 4000-5000 response units (RU). For analysis of the peptide dimers, FcRn was coated to a density of 2000-2500 RU. All SPR measurements were performed using a BIACORE 3000 Instrument (Biacore AB Uppsala, Sweden). For measurements done at either pH 6 or pH 7.4, experiments were performed in 50 mM phosphate, 100 mM sodium chloride, 0.01% surfactant P20 (Biacore AB, Uppsala, Sweden).
(§2) Ten, 2-fold dilutions of the peptide were injected over the FcRn-CM5 chip at a rate of 20 μl/min for 2 min. The peptide was dissociated from the chip for 2.5 minutes with buffer. […] Sensorgrams were generated and analyzed using BiaEval software version 3.1 (Biacore AB, Uppsala, Sweden). […]

[2] = target: T1, soluble human FcRn; assay: ELISA, competitor human IgG
Procedure: (§3) The wells were coated with 100 μl/well of 1 μg/ml biotinylated-shFcRn in Buffer A. The plate was sealed and incubated at 37° C. for 2 hours. Afterwards, the plate washed with 200 μl/well of Buffer B (Buffer B: 100 mM MES pH 6, 150 mM NaCl, 0.5% BSA IgG-free (Jackson ImmunoResearch, West Grove, Pa.), 0.05% Tween-20). […] To allow for mixing, the plate was rocked for 2 minutes, sealed and incubated at 37° C. for 2 hours. […] The plate was covered, incubated for 30 minutes at room temperature and washed 4 times with 200 μl/well of ice-cold buffer B. SureBlue TMB substrate solution (100 μl/well, KPL, Gaithersburg, Md.) was added and the plate was allowed to incubate at room temperature until color developed, which took 5 to 10 minutes. Once color developed, 100 μl/well of TMB stop solution (KPL, Gaithersburg, Md.) was added and the absorbance was measured at 450 nm. The data was plotted as absorbance vs. peptide concentration to derive the inhibitory concentration 50% (IC₅₀) values.

[3] = target: T1, soluble human FcRn; assay: SPR, pH 7.4
Procedure: as §1, §2

[4] = target: T1, soluble human FcRn; assay: ELISA, competitor human IgG; remark: listed apart in the source
Procedure: as §3

[5] = target: T1, soluble human FcRn; assay: SPR, pH 7.4; remark: listed apart in the source
Procedure: as §1, §2

[6] = target: T1, soluble human FcRn; assay: ELISA, competitor human IgG; remark: listed apart in the source
Procedure: as §3

[7] = target: T1, soluble human FcRn; assay: SPR, pH 7.4; remark: listed apart in the source
Procedure: as §1, §2

[8] = target: T1, soluble human FcRn; assay: ELISA, competitor human IgG; remark: listed apart in the source
Procedure: as §3

[9] = target: T1, soluble human FcRn; assay: SPR, pH 6; remark: listed apart in the source
Procedure: as §1, §2

[10] = target: T1, soluble human FcRn; assay: SPR, pH 6; remark: listed apart in the source
Procedure: as §1, §2

[11] = target: T1, soluble human FcRn; assay: SPR, pH 7.4; remark: listed apart in the source
Procedure: as §1, §2

[12] = target: T1, soluble human FcRn; assay: ELISA, competitor human IgG; remark: listed apart in the source
Procedure: as §3

[13] = target: T1, soluble human FcRn; assay: SPR, pH 6; remark: listed apart in the source
Procedure: as §1
(§4) Ten, 2-fold dilutions of the peptide were injected over the FcRn-CM5 chip at a rate of 20 μl/min for 2 min. The peptide was dissociated from the chip for 2.5 minutes with buffer. Any remaining peptide was removed from the chip with a 30 second injection of HBS-P buffer (Biacore AB, Uppsala, Sweden) at a rate of 30 μl/min. Sensorgrams were generated and analyzed using BiaEval software version 3.1 (Biacore AB, Uppsala, Sweden). The equilibrium RU observed for each injection was plotted against concentration. The equilibrium KD values were derived by analysis of the plots using the steady state affinity model included in the BiaEval software.

[14] = target: T1, soluble human FcRn; assay: SPR, pH 6; remark: listed apart in the source
Procedure: as §1, §4

[15] = target: T1, soluble human FcRn; assay: SPR, pH 7.4; remark: listed apart in the source
Procedure: as §1, §2

[16] = target: T1, soluble human FcRn; assay: ELISA, competitor human IgG; remark: listed apart in the source
Procedure: as §3

[17] = target: T1, soluble human FcRn; assay: SPR, pH 6; remark: listed apart in the source
Procedure: as §1, §4

[18] = target: T1, soluble human FcRn; assay: SPR, pH 7.4; remark: listed apart in the source
Procedure: as §1, §2

T1 sequence (P55899 24-297 limits assumed, chain 1 of 2): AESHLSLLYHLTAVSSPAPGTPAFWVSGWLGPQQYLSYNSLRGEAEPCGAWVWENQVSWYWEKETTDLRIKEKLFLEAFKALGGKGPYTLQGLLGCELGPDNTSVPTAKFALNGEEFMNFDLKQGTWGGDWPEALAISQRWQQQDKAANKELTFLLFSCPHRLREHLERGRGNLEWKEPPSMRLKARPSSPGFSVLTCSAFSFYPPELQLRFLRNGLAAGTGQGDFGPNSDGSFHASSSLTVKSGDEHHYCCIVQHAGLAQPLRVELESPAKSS
T1 sequence (P61769 21-119 limits assumed, chain 2 of 2): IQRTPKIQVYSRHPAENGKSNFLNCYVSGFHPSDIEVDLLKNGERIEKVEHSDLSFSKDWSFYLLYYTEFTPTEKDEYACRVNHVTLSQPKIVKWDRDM

In the case of RFXTGHFGPLYPC (Pen at 3; D-Pro at 9; disulfide; C-terminal amide) [Peptide No. 142], the Kd [1] is reported as 140 nM and the IC50 [2] is reported as 1500 nM.

QRFXTGHFGGLXPCNGP (Pen at 4; 4-fluoro-Phe at 12; disulfide; C-terminal amide) [Peptide No. 140] gave a Kd [3] of 24000 nM and an IC50 [4] of 26000 nM.

B1: Peptide No. 80 (peptide)
peptide: QRFKTGHFGGLYPDNGP-NH2
modifications: lactam 4-14; N-terminus assumed
SMILES: CC(C)C[C@@H]1NC(=O)CNC(=O)CNC(=O)[C@H](Cc2ccccc2)NC(=O)[C@H](Cc2c[nH]cn2)NC(=O)CNC(=O)[C@H]([C@@H](C)O)NC(=O)[C@@H](NC(=O)[C@H](Cc2ccccc2)NC(=O)[C@H](CCCNC(=N)N)NC(=O)[C@@H](N)CCC(N)=O)CCCCNC(=O)C[C@@H](C(=O)N[C@@H](CC(N)=O)C(=O)NCC(=O)N2CCC[C@H]2C(N)=O)NC(=O)[C@@H]2CCCN2C(=O)[C@H](Cc2ccc(O)cc2)NC1=O
Binder B1 has a Kd [5] of 52000 nM and an IC50 [6] of 60000 nM.

QRFCTGHFG[dA]LYPCNGP-NH2 (disulfide 4-14 (inferred)) [Peptide No. 23] was tested, and the Kd [7] was 184000 nM and the IC50 [8] was 57000 nM.

Work on QRFCTGHF[dA][dA]LYPCNGP-NH2 (disulfide 4-14 (inferred)) [Peptide No. 24] yielded a Kd [9] of 22000 nM and an IC50 [8] of 69000 nM.

B2: Peptide No. 122 (peptide)
peptide: QRFDTGHFGGLYPKNGP
modifications: also: bromoacetylated peptide joined to a SATP-derivatized peptide (dimer), further groups not given here
Binder B2 has a Kd [10] of 6 nM, a Kd [11] of 120 nM and an IC50 [12] of 970 nM.

QRFXTGHFGGLYPDNGP (Dab at 4; side-chain lactam bridge Dab 4-Asp 14; C-terminal amide) [Peptide No. 81] was tested, and the Kd [13] was 8400 nM and the Kd [5] was 45000 nM.

B3: Peptide No. 296 (peptide)
peptide: QRF[Pen]HGHFGGLYPCNGP-NH2
modifications: disulfide 4-14; N-terminus assumed
SMILES: CC(C)C[C@@H]1NC(=O)CNC(=O)CNC(=O)[C@H](Cc2ccccc2)NC(=O)[C@H](Cc2c[nH]cn2)NC(=O)CNC(=O)[C@H](Cc2c[nH]cn2)NC(=O)[C@@H](NC(=O)[C@H](Cc2ccccc2)NC(=O)[C@H](CCCNC(=N)N)NC(=O)[C@@H](N)CCC(N)=O)C(C)(C)SSC[C@@H](C(=O)N[C@@H](CC(N)=O)C(=O)NCC(=O)N2CCC[C@H]2C(N)=O)NC(=O)[C@@H]2CCCN2C(=O)[C@H](Cc2ccc(O)cc2)NC1=O
B3 was tested, and the Kd [14] was 150 nM, the Kd [15] was 960 nM and the IC50 [16] was 3000 nM.

In the case of QRFXTGHFGGHYPCNGP (Pen at 4; disulfide; C-terminal amide) [Peptide No. 84], the Kd [17] is reported as 380 nM and the Kd [18] is reported as 2500 nM.

B4: Peptide No. 100 (peptide)
peptide: QRFDTGHFGGLYPKNGP
modifications: also: N-termini joined through a bis-thiol linker (bromoacetylated peptide), bridge as drawn, places not given here
B4 was tested, and the Kd [10] was 6 nM, the Kd [11] was 130 nM and the IC50 [12] was 760 nM.
